Here are results for two molecules from patent US20030105278A1 (MERK, published 2003).

The target in experiment [1] is T1, human MCH receptor expressed from the open reading frame cDNA SEQ. ID. NO. 1 in 293-AEQ17 cells (human, UniProt Q99705 1-353). The experiment can be described thus: cell-based or functional assay.
In experiment [2] the target is T2, human MCH receptor (membranes from a stable CHO or HEK-293 cell line) (human, UniProt Q99705 1-353).
T2 construct: whole, on cells; also called cloned human MCH receptor (CHO clone)
Nature of the experiment: competition vs [125I]-human MCH (Phe13,Tyr19); human MCH receptor cell membranes (Example 3); unit of the concentration '1' not given.

Experiment [3] concerns the target T1, human MCH receptor expressed from the …. Nature of the experiment: cell-based or functional assay. The source holds these as a separate data set.
Experiment [4] deals with T2, human MCH receptor (membranes from a …). The experiment can be described thus: competition vs [125I]-human MCH (Phe13,Tyr19); human MCH receptor cell membranes (Example 3); unit of the concentration '1' not given. This is another data set of the same source.

Where two headings read alike, the source gives them in different places.

T1 sequence (Q99705 whole entry): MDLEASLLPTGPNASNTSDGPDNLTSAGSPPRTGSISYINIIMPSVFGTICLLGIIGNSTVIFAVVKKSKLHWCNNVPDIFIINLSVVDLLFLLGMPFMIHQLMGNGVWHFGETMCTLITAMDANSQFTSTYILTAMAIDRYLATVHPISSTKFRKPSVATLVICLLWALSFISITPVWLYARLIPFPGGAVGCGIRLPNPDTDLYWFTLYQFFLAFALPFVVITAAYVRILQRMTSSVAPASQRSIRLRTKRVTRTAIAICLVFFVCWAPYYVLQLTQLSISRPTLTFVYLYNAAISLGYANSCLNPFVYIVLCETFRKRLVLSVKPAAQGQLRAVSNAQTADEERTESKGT
T2 sequence (Q99705 whole entry): as above

B1: MCH analog SEQ. ID. NO. 58 (position 10: D-Glu) (peptide)
peptide: RCMLXRVYRPC
modifications: D-Glu at position 10; N-terminal acetyl, C-terminal amide, Cys-Cys disulfide as in SEQ. ID. NO. 7
notes: ID; NO; 7 peptide; MCH position numbering
With B1, in experiment [1], the concentration for a half-maximal effect (EC50) (in general, the concentration that produces a half-maximal response) is more than 10 µM. Besides, the “% @ 1 (in the IC50 column)” value in experiment [2] was found to be 40%.

B2: MCH analog SEQ. ID. NO. 26 (N-Me-Leu^9) (peptide)
peptide: RCMXGRVYRPC
modifications: N-methyl-leucine at position 9; N-terminal acetyl, C-terminal amide, Cys-Cys disulfide as in SEQ. ID. NO. 7
notes: as for B1
Consider B2, for which, in experiment [3], the Activation % was 3% and the concentration for a half-maximal effect (EC50) was more than 10 µM. In addition, in experiment [4], the “% @ 1 (in the IC50 column)” value is 10%.
